Among the data in doi:10.1101/2025.03.14.643221 are stoichiometry N and Kd values, retold here.

In data set [1] the target is SalEnt LmuB, SMC-like (Rad50-like) ABC ATPase (Salmonella enterica subsp. enterica serovar Tennessee (strain TXSC_TXSC08-19)). In words: cryo-EM structure.
Data set [2] deals with SalEnt LmuA(K68A), catalytically dead nuclease effector, tag cleaved (Salmonella enterica subsp. enterica serovar Tennessee (strain TXSC_TXSC08-19)). Put plainly: cryo-EM structure.
For data set [3], the system named is LmuA(K68A), LmuA-KA;LmuB;LmuC. In words: fluorescence anisotropy.

Regarding “SalEnt LmuB, SMC-like (Rad50-like) ABC ATPase (natural protein)”, the stoichiometry N in data set [1] came to 2.

Substance “SalEnt LmuA(K68A), catalytically dead nuclease effector, tag cleaved (enzyme)” registered a stoichiometry N in data set [2] of 4. Regarding 40-mer dsDNA 6-FAM, the Kd in data set [3] is 180 nM.

One may read the stoichiometry N as the number of molecules, sites or subunits per partner or assembly. What is called Kd is the concentration at which binding is half-saturated.
